The record followed here is patent publication US20140302123A1.

The target of test [1] is T1, PTPN4-PDZ (residues G499-N604) (human), P29074.
T1 chain: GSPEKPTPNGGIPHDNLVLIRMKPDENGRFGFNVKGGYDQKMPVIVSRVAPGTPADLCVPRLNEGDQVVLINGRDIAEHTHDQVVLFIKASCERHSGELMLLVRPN
The experiment in a line: NMR titration (rounded value in the text).

Test [2] deals with T1, PTPN4-PDZ (residues G499-N604) (human), …. Put plainly: NMR titration, 15N-labeled PTPN4-PDZ with unlabeled peptide.

B1: Cyto13-att (peptide)
peptide: SWESHKSGGETRL
modifications: not checked
Regarding B1, the Kd was found to be 160 µM in test [1] and 157 µM in test [2].

Broadly, the Kd is the concentration at which binding is half-saturated. Read a high Kd as weaker binding.
